Test results: patent publication US20190343963A1

Tests used:
IL-13 (human) [1] = target: IL-13 (human) (UniProt P35225); test: competition ELISA; 1 h incubation
IL-13 (human) [2] = target: IL-13 (human) (UniProt P35225); test: competition ELISA; 24 h incubation
IL-13 (human) [3] = target: IL-13 (human) (UniProt P35225); test: competition ELISA; 1 h incubation; remark: listed apart in the source
IL-13 (human) [4] = target: IL-13 (human) (UniProt P35225); test: competition ELISA; 24 h incubation; remark: listed apart in the source

Sequence of IL-13 (human) (P35225 35-146): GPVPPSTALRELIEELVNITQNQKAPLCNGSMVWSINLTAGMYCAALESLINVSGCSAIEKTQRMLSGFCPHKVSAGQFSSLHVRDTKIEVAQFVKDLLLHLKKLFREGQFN

Row | EC50 (IL-13 (human) [1]) [nM] | EC50 (IL-13 (human) [2]) [nM] | EC50 (IL-13 (human) [3]) [nM] | EC50 (IL-13 (human) [4]) [nM] | EC50 (IL-13 (human) [2]; Fab) [nM] | EC50 (IL-13 (human) [3]; Fab) [nM] | Substance
1 | 0.25 | 0.54 | 2.1 | 2.28 |  |  | CAT-354
2 |  |  |  |  | 4 | 3.56 | CAT-354 fab
